Results as given in PMC3258846 (Molecular Cell, 2011).

Assays:
GST-ASCC3-B = GST-ASCC3-B (human, UniProt Q8N3C0 401-1300); test: pull-down
GST-ASCC3-C = GST-ASCC3-C (human, UniProt Q8N3C0 1301-2202); test: pull-down
GST-ASCC3-C, sequence (Q8N3C0 1301-2202): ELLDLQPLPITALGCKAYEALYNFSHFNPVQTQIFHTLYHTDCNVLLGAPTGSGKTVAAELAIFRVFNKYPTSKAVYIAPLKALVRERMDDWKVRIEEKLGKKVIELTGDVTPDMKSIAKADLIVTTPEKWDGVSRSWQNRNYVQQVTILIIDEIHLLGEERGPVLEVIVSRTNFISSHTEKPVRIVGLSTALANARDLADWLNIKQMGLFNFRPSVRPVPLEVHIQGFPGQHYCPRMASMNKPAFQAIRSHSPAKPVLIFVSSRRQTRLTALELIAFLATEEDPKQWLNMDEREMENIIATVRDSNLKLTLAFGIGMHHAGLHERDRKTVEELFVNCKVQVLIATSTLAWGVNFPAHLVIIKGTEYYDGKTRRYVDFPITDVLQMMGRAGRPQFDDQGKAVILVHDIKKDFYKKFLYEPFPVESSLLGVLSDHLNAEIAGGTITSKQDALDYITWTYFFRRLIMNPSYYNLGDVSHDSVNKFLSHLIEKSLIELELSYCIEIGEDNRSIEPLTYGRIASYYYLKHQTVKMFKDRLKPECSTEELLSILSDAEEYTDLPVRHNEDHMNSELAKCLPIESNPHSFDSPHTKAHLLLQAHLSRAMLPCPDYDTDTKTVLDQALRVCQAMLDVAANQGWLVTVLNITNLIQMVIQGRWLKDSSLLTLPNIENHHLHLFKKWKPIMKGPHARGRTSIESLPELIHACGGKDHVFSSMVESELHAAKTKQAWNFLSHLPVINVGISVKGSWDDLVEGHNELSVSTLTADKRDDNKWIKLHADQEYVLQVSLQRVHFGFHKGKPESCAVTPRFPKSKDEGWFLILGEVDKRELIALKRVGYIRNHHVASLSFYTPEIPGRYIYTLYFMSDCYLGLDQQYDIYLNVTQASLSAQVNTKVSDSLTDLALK

GST-ASCC3-B, sequence (Q8N3C0 401-1300): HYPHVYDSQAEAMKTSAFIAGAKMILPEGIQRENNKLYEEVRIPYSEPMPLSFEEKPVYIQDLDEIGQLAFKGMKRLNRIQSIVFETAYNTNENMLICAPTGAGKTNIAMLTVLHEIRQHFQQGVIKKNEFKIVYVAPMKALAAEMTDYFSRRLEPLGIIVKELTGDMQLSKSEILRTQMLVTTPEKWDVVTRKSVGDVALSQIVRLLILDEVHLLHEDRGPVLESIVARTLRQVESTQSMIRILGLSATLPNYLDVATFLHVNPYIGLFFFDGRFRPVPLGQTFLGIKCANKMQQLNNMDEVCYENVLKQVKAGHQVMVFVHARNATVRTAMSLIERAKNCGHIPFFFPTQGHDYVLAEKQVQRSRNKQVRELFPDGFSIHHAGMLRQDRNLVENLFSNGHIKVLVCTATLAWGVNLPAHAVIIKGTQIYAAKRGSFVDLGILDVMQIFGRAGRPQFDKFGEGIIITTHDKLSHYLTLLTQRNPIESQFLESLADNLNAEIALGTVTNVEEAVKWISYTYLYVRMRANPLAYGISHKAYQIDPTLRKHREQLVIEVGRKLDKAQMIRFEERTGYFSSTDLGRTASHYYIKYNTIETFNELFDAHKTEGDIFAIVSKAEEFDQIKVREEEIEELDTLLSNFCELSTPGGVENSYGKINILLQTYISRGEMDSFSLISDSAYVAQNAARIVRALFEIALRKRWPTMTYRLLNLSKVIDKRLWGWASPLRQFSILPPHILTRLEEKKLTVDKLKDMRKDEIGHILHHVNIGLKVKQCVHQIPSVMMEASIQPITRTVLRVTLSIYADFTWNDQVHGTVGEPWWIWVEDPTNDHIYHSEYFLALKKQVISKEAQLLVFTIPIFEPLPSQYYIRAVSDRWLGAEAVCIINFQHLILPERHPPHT

B1: His6-ALKBH3 (enzyme, human, UniProt Q96Q83 1-286, looked up)
chain: MEEKRRRARVQGAWAAPVKSQAIAQPATTAKSHLHQKPGQTWKNKEHHLSDREFVFKEPQQVVRRAPEPRVIDREGVYEISLSPTGVSRVCLYPGFVDVKEADWILEQLCQDVPWKQRTGIREDITYQQPRLTAWYGELPYTYSRITMEPNPHWHPVLRTLKNRIEENTGHTFNSLLCNLYRNEKDSVDWHSDDEPSLGRCPIIASLSFGATRTFEMRKKPPPEENGDYTYVERVKIPLDHGTLLIMEGATQADWQHRVPKEYHSREPRVNLTFRTVYPDPRGAPW
B1: binds (GST-ASCC3-B); binds (GST-ASCC3-C).
